This passage reports stoichiometry N results from PMC13572408.

For the assay, the target named is His6-AstR (Acinetobacter baumannii ATCC 17978VU). The experiment in a line: SEC; purified His6-AstR; size estimated with standard curves; Size Exclusion Buffer (50 mM Tris, 300 mM NaCl, pH 8).

For His6-AstR (natural protein), the stoichiometry N is 2.
